Source: the supplement of paper PMC9112550, “Optimization of the antimicrobial peptide Bac7 by deep mutational scanning” (BMC Biology, 2022)

What follows are sequences tested on Escherichia coli TOP10 (assay: shrunken log2 fold change of peptide-encoding DNA abundance (4.5 h post-induction vs induction); higher = less antimicrobial activity (less host growth inhibition)). Settings: time post-induction: 4.5 h; library: site-saturation at positions 5, 18, 19, 20.
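Also: peptides expressed intracellularly from a pBAD plasmid library in pooled LB shake-flask culture, induced with 0.3% L-arabinose, DNA abundance read by NGS, three biological replicates, DESeq2 with apeglm shrinkage.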

Row | Sequence | shrunken log2 fold change
1 | RRIRYRPPRLPRPRPRPQWPPRP | -0.533
2 | RRIRYRPPRLPRPRPRPQWRPRP | 0.0697
3 | RRIRYRPPRLPRPRPRPRANPRP | -0.109
4 | RRIRYRPPRLPRPRPRPRDGPRP | -0.0431
5 | RRIRYRPPRLPRPRPRPRDLPRP | -0.372
6 | RRIRYRPPRLPRPRPRPRDQPRP | -0.0852
7 | RRIRYRPPRLPRPRPRPRDRPRP | -0.116
8 | RRIRYRPPRLPRPRPRPREFPRP | 0.163
9 | RRIRYRPPRLPRPRPRPREIPRP | -0.442
10 | RRIRYRPPRLPRPRPRPRGIPRP | -0.0542
11 | RRIRYRPPRLPRPRPRPRGKPRP | 0.158
12 | RRIRYRPPRLPRPRPRPRHRPRP | 0.0433
13 | RRIRYRPPRLPRPRPRPRIKPRP | -0.502
14 | RRIRYRPPRLPRPRPRPRILPRP | -0.276
15 | RRIRYRPPRLPRPRPRPRKGPRP | -0.013
16 | RRIRYRPPRLPRPRPRPRLDPRP | -0.176
17 | RRIRYRPPRLPRPRPRPRMAPRP | 0.0395
18 | RRIRYRPPRLPRPRPRPRNRPRP | -0.0543
19 | RRIRYRPPRLPRPRPRPRPRPRP | 0.463
20 | RRIRYRPPRLPRPRPRPRRLPRP | -0.385
21 | RRIRYRPPRLPRPRPRPRSDPRP | -0.113
22 | RRIRYRPPRLPRPRPRPRSMPRP | -0.622
23 | RRIRYRPPRLPRPRPRPRSYPRP | -0.879
24 | RRIRYRPPRLPRPRPRPRVLPRP | -0.322

Row | Sequence | shrunken log2 fold change
25 | RRIRYRPPRLPRPRPRPRWIPRP | -0.553
26 | RRIRYRPPRLPRPRPRPRWWPRP | 0.189
27 | RRIRYRPPRLPRPRPRPRYSPRP | -1.43
28 | RRIRYRPPRLPRPRPRPSAFPRP | -0.607
29 | RRIRYRPPRLPRPRPRPSAWPRP | 0.199
30 | RRIRYRPPRLPRPRPRPSDEPRP | -0.0199
31 | RRIRYRPPRLPRPRPRPSDKPRP | -0.194
32 | RRIRYRPPRLPRPRPRPSECPRP | -0.347
33 | RRIRYRPPRLPRPRPRPSEFPRP | -0.218
34 | RRIRYRPPRLPRPRPRPSFKPRP | -0.806
35 | RRIRYRPPRLPRPRPRPSFYPRP | -1.06
36 | RRIRYRPPRLPRPRPRPSKCPRP | -0.00419
37 | RRIRYRPPRLPRPRPRPSLEPRP | -0.0996
38 | RRIRYRPPRLPRPRPRPSLKPRP | -0.316
39 | RRIRYRPPRLPRPRPRPSMHPRP | -0.601
40 | RRIRYRPPRLPRPRPRPSMPPRP | -1.69
41 | RRIRYRPPRLPRPRPRPSNNPRP | -1.42
42 | RRIRYRPPRLPRPRPRPSPAPRP | 0.156
43 | RRIRYRPPRLPRPRPRPSQMPRP | -0.706
44 | RRIRYRPPRLPRPRPRPSRPPRP | -0.084
45 | RRIRYRPPRLPRPRPRPSSMPRP | -0.999
46 | RRIRYRPPRLPRPRPRPSSWPRP | -0.284
47 | RRIRYRPPRLPRPRPRPSTHPRP | 0.396
48 | RRIRYRPPRLPRPRPRPSYKPRP | -1.22

Row | Sequence | shrunken log2 fold change
49 | RRIRYRPPRLPRPRPRPTCCPRP | -0.194
50 | RRIRYRPPRLPRPRPRPTCRPRP | -0.157
51 | RRIRYRPPRLPRPRPRPTCTPRP | -0.229
52 | RRIRYRPPRLPRPRPRPTDAPRP | -0.0292
53 | RRIRYRPPRLPRPRPRPTDTPRP | -0.392
54 | RRIRYRPPRLPRPRPRPTEIPRP | -0.41
55 | RRIRYRPPRLPRPRPRPTERPRP | -0.532
56 | RRIRYRPPRLPRPRPRPTFGPRP | -0.0386
57 | RRIRYRPPRLPRPRPRPTFNPRP | -0.73
58 | RRIRYRPPRLPRPRPRPTFSPRP | -0.383
59 | RRIRYRPPRLPRPRPRPTGGPRP | -0.0407
60 | RRIRYRPPRLPRPRPRPTGHPRP | 0.0155
61 | RRIRYRPPRLPRPRPRPTGPPRP | 0.0492
62 | RRIRYRPPRLPRPRPRPTHEPRP | 0.0198
63 | RRIRYRPPRLPRPRPRPTHKPRP | -0.329
64 | RRIRYRPPRLPRPRPRPTIFPRP | -0.412
65 | RRIRYRPPRLPRPRPRPTIGPRP | -0.31
66 | RRIRYRPPRLPRPRPRPTIRPRP | -0.336
67 | RRIRYRPPRLPRPRPRPTKGPRP | -0.136
68 | RRIRYRPPRLPRPRPRPTLGPRP | -0.16
69 | RRIRYRPPRLPRPRPRPTLNPRP | -0.54
70 | RRIRYRPPRLPRPRPRPTLYPRP | -0.828
71 | RRIRYRPPRLPRPRPRPTMDPRP | -0.67
72 | RRIRYRPPRLPRPRPRPTQLPRP | -0.46

Row | Sequence | shrunken log2 fold change
73 | RRIRYRPPRLPRPRPRPTQQPRP | -0.00797
74 | RRIRYRPPRLPRPRPRPTRYPRP | -0.469
75 | RRIRYRPPRLPRPRPRPTTEPRP | 0.00298
76 | RRIRYRPPRLPRPRPRPTTKPRP | -0.179
77 | RRIRYRPPRLPRPRPRPTTWPRP | -0.358
78 | RRIRYRPPRLPRPRPRPTVMPRP | -0.176
79 | RRIRYRPPRLPRPRPRPTWEPRP | -0.0387
80 | RRIRYRPPRLPRPRPRPTWQPRP | -0.255
81 | RRIRYRPPRLPRPRPRPVAMPRP | -0.464
82 | RRIRYRPPRLPRPRPRPVDVPRP | -0.359
83 | RRIRYRPPRLPRPRPRPVEMPRP | -1.52
84 | RRIRYRPPRLPRPRPRPVFFPRP | -0.367
85 | RRIRYRPPRLPRPRPRPVGYPRP | -0.152
86 | RRIRYRPPRLPRPRPRPVHFPRP | -0.451
87 | RRIRYRPPRLPRPRPRPVLGPRP | 0.0727
88 | RRIRYRPPRLPRPRPRPVLVPRP | -0.507
89 | RRIRYRPPRLPRPRPRPVMKPRP | -0.131
90 | RRIRYRPPRLPRPRPRPVNVPRP | -0.0979
91 | RRIRYRPPRLPRPRPRPVQGPRP | -0.0822
92 | RRIRYRPPRLPRPRPRPVREPRP | 0.484
93 | RRIRYRPPRLPRPRPRPVTFPRP | -0.0285
94 | RRIRYRPPRLPRPRPRPVTKPRP | -0.543
95 | RRIRYRPPRLPRPRPRPVVPPRP | -0.0502
96 | RRIRYRPPRLPRPRPRPVWGPRP | 0.432

Row | Sequence | shrunken log2 fold change
97 | RRIRYRPPRLPRPRPRPVWVPRP | 0.127
98 | RRIRYRPPRLPRPRPRPVWWPRP | 0.113
99 | RRIRYRPPRLPRPRPRPVYDPRP | -0.112
100 | RRIRYRPPRLPRPRPRPVYLPRP | 0.00668
101 | RRIRYRPPRLPRPRPRPVYMPRP | -1.34
102 | RRIRYRPPRLPRPRPRPVYVPRP | -0.37
103 | RRIRYRPPRLPRPRPRPWFNPRP | -0.0994
104 | RRIRYRPPRLPRPRPRPWFVPRP | -0.271
105 | RRIRYRPPRLPRPRPRPWGAPRP | -0.315
106 | RRIRYRPPRLPRPRPRPWHFPRP | -1.15
107 | RRIRYRPPRLPRPRPRPWHQPRP | -0.883
108 | RRIRYRPPRLPRPRPRPWKPPRP | -0.2
109 | RRIRYRPPRLPRPRPRPWLEPRP | -0.118
110 | RRIRYRPPRLPRPRPRPWLPPRP | 0.1
111 | RRIRYRPPRLPRPRPRPWLYPRP | -0.613
112 | RRIRYRPPRLPRPRPRPWNNPRP | -0.656
113 | RRIRYRPPRLPRPRPRPWPDPRP | -0.137
114 | RRIRYRPPRLPRPRPRPWRPPRP | -0.0287
115 | RRIRYRPPRLPRPRPRPWSTPRP | -0.458
116 | RRIRYRPPRLPRPRPRPWTFPRP | -0.225
117 | RRIRYRPPRLPRPRPRPWTHPRP | -0.00149
118 | RRIRYRPPRLPRPRPRPWVRPRP | -0.108
119 | RRIRYRPPRLPRPRPRPWWPPRP | -0.254
120 | RRIRYRPPRLPRPRPRPWYAPRP | -1.43

Row | Sequence | shrunken log2 fold change
121 | RRIRYRPPRLPRPRPRPYAYPRP | -0.948
122 | RRIRYRPPRLPRPRPRPYCCPRP | -0.145
123 | RRIRYRPPRLPRPRPRPYCFPRP | -1
124 | RRIRYRPPRLPRPRPRPYEPPRP | -0.248
125 | RRIRYRPPRLPRPRPRPYFDPRP | -0.27
126 | RRIRYRPPRLPRPRPRPYFIPRP | -0.629
127 | RRIRYRPPRLPRPRPRPYGVPRP | -0.00992
128 | RRIRYRPPRLPRPRPRPYHGPRP | -0.139
129 | RRIRYRPPRLPRPRPRPYIEPRP | -0.469
130 | RRIRYRPPRLPRPRPRPYKIPRP | -0.573
131 | RRIRYRPPRLPRPRPRPYKLPRP | -0.491
132 | RRIRYRPPRLPRPRPRPYNAPRP | -0.471
133 | RRIRYRPPRLPRPRPRPYNKPRP | -0.734
134 | RRIRYRPPRLPRPRPRPYSHPRP | -0.958
135 | RRIRYRPPRLPRPRPRPYSKPRP | -0.124
136 | RRIRYRPPRLPRPRPRPYSYPRP | -0.395
137 | RRIRYRPPRLPRPRPRPYTYPRP | -0.438
138 | RRIRYRPPRLPRPRPRPYVFPRP | -0.0427
139 | RRIRYRPPRLPRPRPRPYWLPRP | -1.14
140 | RRIRYRPPRLPRPRPRPYYIPRP | -1.83
141 | RRIRYRPPRLPRPRPRPYYMPRP | -1.06
